{"source": "the nanobody polyreactivity screen of Harvey et al. (2022)"}
{"assay": "yeast display, Sf9 membrane polyspecificity reagent, FACS + sequencing; frameworks hold sequencing errors", "summary_of_the_method": "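A nanobody's polyreactivity label depends on the gate it was sorted from. Yeast display cells were stained with 10% biotinylated, detergent-solubilized Sf9 membrane reagent for 1 hour at 4 °C, enriched on streptavidin microbeads and sorted by FACS. The low and high (top ~1%) gates were set on anti-HA fluorescence for expression and streptavidin fluorescence for reagent binding.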"}
{"sequence": "QVQLVESGGGLVQAGGSLRLSCAASGFTLRRYAMGWYRLAPGKERELVATITSGGTTDYADSVKGRFTISRDNAKNTVYLQMNSLKPEDTAVYYCAAYRRGAYYYWGQGTQVTVSS", "polyreactivity (PSR sort gate)": "high polyreactivity"}
{"sequence": "QVQLVESGGGLVQAGGSLRLSCAASGSIFAYAMGWYRKAPGKEMELVAAISGGSTYYADSVKGRFTISRDNAKNTVYLQMNSVKPEDTAVYYCAADLDDERYYWGQGTQVTVSS", "polyreactivity (PSR sort gate)": "low polyreactivity"}
{"sequence": "QVQLVESGGGLVQAGGSLRLTCAASGFIFGTYAMGWYRLSPGKERELVAAISSGGSTYYAYSVKGRFTISRDNAKYTVYLQMNSLKPEDTAVYYCAKEGGTYRIFNYWGQGTQVTLSS", "polyreactivity (PSR sort gate)": "low polyreactivity"}
{"sequence": "QVQLVESGGGLVQAGGSLRLSCAASGRTFGRYAMGWYRQAPGKEREFVAAIRSHGVSTYYADSVKGRFTISRDNAKNTVYLQMNSLKPEDTAVYYCAKPSTSYYQRGDYWGQGTQVTVSS", "polyreactivity (PSR sort gate)": "high polyreactivity"}
{"sequence": "QVQLVESGGGLVQAGGSLRLSCAASGSTSQTYTMGWYRQAPGKERELVAAISLRGGRTYYADSVKGRFTISRDNAKNTVYLQMNSLKPEDTAVYYCNRDYRGPYYYWGQGTQVTVSS", "polyreactivity (PSR sort gate)": "high polyreactivity"}
{"sequence": "QVQLVESGGGLVQAGGSLRLSCAASGSTFVYYTMGWYRQAPGKERELVATISSRGGSTYYADSVKGRFTISRDNAKNTVYLQMNSLKPEDTAVYYCAKRGPFYGNYDYWGQGTQVTVSS", "polyreactivity (PSR sort gate)": "high polyreactivity"}
{"sequence": "QVQLVESGGGLVQAGGSLRLSCAASRFIFWSYAMGWYRQAPGKERELVAAISWRGGSTYYADSVKGRFTISRDNAKNTVYLQMNSLKPEDTAVYYCAAESYNGYDYWGQGTQVTVSS", "polyreactivity (PSR sort gate)": "high polyreactivity"}
{"sequence": "QVQLVESGGGLVQAGGSLRLSCAASGSTFRYYAMGWYRQAPGKERELVASITWSGGSTYYADSVKGRFTISRDNAKNTVYLQMNSLNPEDTAVYYCAARQYIGSPPHRRRFDYWGKGTQVTVSS", "polyreactivity (PSR sort gate)": "high polyreactivity"}
{"sequence": "QVQLVESGGGLVQAGGSLRLSCAASGSTFPGYAMGWYRQAPGKERELVAAISWSGGNTYYADSVKGRFTISRDNAKNTVYLQMNSLKPEDTAVYYCNAAGRRYKFDYWGQGTQVSVSS", "polyreactivity (PSR sort gate)": "high polyreactivity"}
{"sequence": "QVQLVESGGGLVQAGGSLRLSCAASGSTFVHYGMGWYRQAPGKERELVAAISYSGGSTSYADSVKGRFTISRDNAKNTVYLQMNSLKPEDTAVYYCATVRKRRYDYWGQGTQVTVSS", "polyreactivity (PSR sort gate)": "low polyreactivity"}
{"sequence": "QVQLVESGGGLVQAGGSLRLSCAASGITFGYYAMGWYRQAPGKEREFVAGITTSGGTTYYADSVKGRFTISRDNENNTVYLHMNSLKPEDTAVYYCAVYGGVKRGSFYYWGQGTQVTVSS", "polyreactivity (PSR sort gate)": "low polyreactivity"}
{"sequence": "QVQLVESGGGLVQAGGSLRLSCAASGSIFGRYAMGWYRQAPGKERELVAAITRSGVSTYYADSVKGRFTISGDYAKNTVYLQMNSLKPEETAVYYCNAYYRIRSSPYGYYYWGEGTQVTVSS", "polyreactivity (PSR sort gate)": "high polyreactivity"}
{"sequence": "QVQLQESGGGLVQACGSLRLSCAASGYISHADEMGWYRQAPGKEHELVASISNGGSTNYADSVKGRFTMSRDNAKNTVYLQMNSLKSEDTAVYYCAAWTGQVDIHYYWGQGTKVTVSS", "polyreactivity (PSR sort gate)": "low polyreactivity"}
{"sequence": "QVQLVESGGGLVQAGGSLRLSCAASGSIFVPYAMGWYRQAPGKERELVAAISSGGGRTYYADSVKGRFTISRDNAKNTVYLQMNRLKPEDTAVYYCAARYYIGYGHRTYGYDYWGQGTQVTVSS", "polyreactivity (PSR sort gate)": "high polyreactivity"}
{"sequence": "QVQLVESGGGLVQAGGSLRLSCAASGRTFGFYAMGWYRQAPGKERELVASITWRRGRTYYADSVKGRFTISRDNAKNTLYLQMNSLNPEDTAVYYCAAVTFSYDGYDYWGQGTQVTVSS", "polyreactivity (PSR sort gate)": "low polyreactivity"}
{"sequence": "QVQLVESGGGLVQAGGSLSLICAASGRIYPKYAMGWYRQAPGKERELVAGITKRVGSTYYADSVKGRFTISRDNAKHTVYLQMTSLKPEDTAGYYCAKRWVSGPHGYWGQGTQVTVSS", "polyreactivity (PSR sort gate)": "low polyreactivity"}
{"sequence": "QVQLVESGGGLVQAGGSLRLSCAASGSIFGSYAKGCYIQAPGKERELVAAITRAGSTNYADSVKGRFTISRDNGKNTVYLQMNSLKPEDTAVYYCNATGKSTYVLSPVPGAYDYWGQGTQVTVSS", "polyreactivity (PSR sort gate)": "low polyreactivity"}
{"sequence": "QVQLVESVGGLVQAGGSLRLSCAASGRTIRWYAMGWYRQAPGKERELVAAITFRGGRTYYADSVKGRFTISRDNEKNTVYLQMNSMKPEDTAVYYCNAVTYSSPYRFDYWGQGTQVTLSS", "polyreactivity (PSR sort gate)": "low polyreactivity"}
{"sequence": "QVQLVDSGGGLVQAGGSLRLSCAASGSTFPSNAMGWYRQAPGKERELVASIDRGGSTNNADSVKGRFTISRDNAKNTVYLQMNRLKPEDTAVYYCAAKRWPYWDISVYYWGYDYWGQGTQVTVSS", "polyreactivity (PSR sort gate)": "low polyreactivity"}
{"sequence": "QVQLVESGGGLLQAGGSLRLSCAASGSTVGINAMGWYRQAPGKERELVASITRRGGSTYYADSVKGRFTISRDNAKNTVYLQMNSLKPEDTAVYYCNKTYRYGTPLYDYWGQGSQVTVSS", "polyreactivity (PSR sort gate)": "high polyreactivity"}
{"sequence": "QVQLVESGGGLVQAGGSLRLSCAASGFTFWDYAMGWYRQSPGKERELVAAISSRGTRTYYADSVKGRFTISRDNAKNTVYLQMNSLKPEDTAVYYCATAITDPDYIHNYWGQGTQVTVSS", "polyreactivity (PSR sort gate)": "high polyreactivity"}
{"sequence": "QVQLVESGGGLVQAGGSLRLSCAASGYIFYDNAMGWYRQAPVKERELVAAISASGGDTYYADSVKGRFTISRDNAKNTVYLQMNSLKPDDTAVYYCAADLITYAMEYWGQGTQVTVSS", "polyreactivity (PSR sort gate)": "low polyreactivity"}
{"sequence": "QVQLVESGGGLVQAGGSLRLSCAASGRIFTKYAMGWYRQAPGKERELVASISSGGSTYYADSVKGRFTISRDNAKNTVYLQMNSLKPEDTAVYYCARSTGTSRRMDDWGQGTQVTVSS", "polyreactivity (PSR sort gate)": "high polyreactivity"}
{"sequence": "QVQLVESGGGLVQAGGSLRLRCAASGSIFIRYAMGWYRQAPGKERELVAVISGRGVRTNYADSVKGRFTIARDTAKNPVYLQMNSLKPEDTAVYYCAVRYYGKQLGPGVRYTYNYLGQGTQVTVSS", "polyreactivity (PSR sort gate)": "high polyreactivity"}
{"sequence": "HVQLVESGGGLVQAGGSLRLSCAASGSIFLHNTMGWYRQAPGKERELVAVISKRGGSTYYADSVKGRFTISRDNAKNTVYLQMNCLKPEDTAVYYCNKTRSAGHPGVDGSPYYYWGQGTQVTVSS", "polyreactivity (PSR sort gate)": "high polyreactivity"}
{"sequence": "QVQLEESGGGLVQAGGSLRLSSAASGRTLVHYAIGSYRQAPGKEREMVAAISIGGDSTYADSVKGRFTISRDNAKNTVYLQMNSLKPEDTAVYYCAASGWWDFFDPYFKFDYWGQGTQVTVSS", "polyreactivity (PSR sort gate)": "low polyreactivity"}
{"sequence": "QVQLVESGGGLVQAGCSLRLSCAASGSIFESYAMGWSRQAPGNERELVAAITSSGDSTYYADSVKGRFTITRDNAKNTVYIQMNSLKPEDTAVYYCANRVPTYISTADWGSRYDYWGQGTQVTVSS", "polyreactivity (PSR sort gate)": "low polyreactivity"}
{"sequence": "QVQLVDSGGGLVQAGGSLRLICAASGRTFGGNTMGWYREAPGKERELVAAISRRGGSTYYADSVKGRFSISRDNAKNTVYLQMNSLKPEDTAVYYCNKDGPSYSSYDYWGQGTQVTVSS", "polyreactivity (PSR sort gate)": "low polyreactivity"}
{"sequence": "QVQLVESGGGLVQAGGSLRLSCAASGLTFYYNAMGWYRQAPGKERELVAAISRSGGSTYYADSVKGRFTISRDNAKNTVYLQMNSLKPEDTAVYYCAVGYVYTRKGRVQPVKYDYWGQGTQVTVSS", "polyreactivity (PSR sort gate)": "high polyreactivity"}
{"sequence": "QVQLVESGGRLVQAGGSLRLSCAASGSTFTLYAMGWYRQAPGKERELVAAITWRGGSTFYADSVKGRFTISRDNAKNSVYLQMNSLKPEDTAVYYCAADYYSYVVGRIYYWGQGTQVNVSS", "polyreactivity (PSR sort gate)": "high polyreactivity"}
{"sequence": "QVQLVETGGGLVQAGGSLRLSCAASGSIFIWYAMGWYRQAPGKERELVAAIRSGGSTYYADSVKGRFTISRDNAKNTVYFQMNRLKPEDTAVYYCAKVLSWRGNRYNYWGQGTQVTVSS", "polyreactivity (PSR sort gate)": "low polyreactivity"}
{"sequence": "QVQLVESGGGSVQAGGSLRLSCAASGSTFRYYAMGWYRQAPGKERELVARITSRAGRTYYADSVKGRFTISRDNAKNTVYLQMNSLKPEDTAVYYCNTRDFSGYVHALSLYDYWGQGTQVTVSS", "polyreactivity (PSR sort gate)": "high polyreactivity"}
{"sequence": "QVQLVESGGGLVQAGGSLRLSCDASGIIFASYAMGWYRQAPGKERELVAAISGGGSTYYADSEKGRFTISRDNAKNTVYLQMNSLKPVDTAVYYCNAEAYYRWLTNIWYSDFDYWGLGTQVTVSS", "polyreactivity (PSR sort gate)": "low polyreactivity"}
{"sequence": "QVQLVESGGGLVQAGGSLRLSCAASGSIFQGNAKGGYRQAPGKERELVAGISDGGSTYYADSVKGRFTISRDNAKNTVYLQMNSLKPEDTAVYYCAAESEQWYSYVLSYDWEYDYWGQGTQVTVSS", "polyreactivity (PSR sort gate)": "low polyreactivity"}
{"sequence": "QVQLVESGGGLVQAGGSLRLSCAASVSTFGRYVMGWYRQAPGKERELVAAISKNAGSTYYADSVKGRFTISRDNAKNTVYVQMNSLKPEDTAVYYCAADWRTKGYDSLGQGTQVTVSS", "polyreactivity (PSR sort gate)": "high polyreactivity"}
{"sequence": "QVQIVESGGGLVQAGGSLRISCAPSGLTFGYYAMGWYRQAPGTERELVAAITYRGGSTYYADSVKGRFTISRDNAKNTVYLQMNSLKPEDTAVYYCATDYFYYDYWGQGTQVTVSS", "polyreactivity (PSR sort gate)": "low polyreactivity"}
{"sequence": "QVQLVESGGGLVQAGGSLRLSCAASGYTFRTNVMGWYRQAPGKERELVAAISSDGSTNYADSVKGRFTISRDNAKNTVYLQMNSLKPEDTAVYYCAAPWTQILDYWGQGTQVTVSS", "polyreactivity (PSR sort gate)": "low polyreactivity"}
{"sequence": "QVQLVESGAGLVQAGGSLRLSCAASGSILTAYAMGWYRQAPVKERELVAAISRGDITKYADSVKGRFTISRDNAKNTVYLQMNSLQPEDTAVYYCAARVPRYSDSTRGRADYYWGQVTQVTVSS", "polyreactivity (PSR sort gate)": "high polyreactivity"}
{"sequence": "QVQLVESGGGLVQAGGSLRLSCAASGRTFYGNAMGWYRQAPGKERELVAAISWSGGGTYYADSVKGRFTISRDNAKNTVYLQMNSLKPEDTAVYYCAAQFGRKGSGVWTRPENYWGQGTQVTVSS", "polyreactivity (PSR sort gate)": "high polyreactivity"}
{"sequence": "QVQLVESGGGLDQAGGSLRLSCAASGSTLVYNDMGWYRQAPGIEREFVAAIRSNDGSTYYADSVKGRFTISGDNAKNTVYLQMNSLKPEDTAGYYCAVVYGYPYLRGYVYGFNYWGQGTQVTVSS", "polyreactivity (PSR sort gate)": "low polyreactivity"}
{"sequence": "QVQLVESGGGLVQAGGSLRLSCAASYNAMGWYRQAPGKEREFVAGITQSGGSTYYADSVKGRFTISRDNAKNTVYLQMNSLKAEDTAVYYCAKRLYKWGQGTQVTVSS", "polyreactivity (PSR sort gate)": "low polyreactivity"}
{"sequence": "QVQLVESGGGLVQAGGSLRLSCAASGRIFKTNAMGWYRQAPGKERELVAAISKRGGRTYYADSVKGRFTISRDNAKNTVYLQMNSLKPEDTAVYYCATRYSGYSLGDYWGQGTQVTVSS", "polyreactivity (PSR sort gate)": "high polyreactivity"}
{"sequence": "QVQLVESGGGLVQAGGSLRLSCAASGYIFKYYAMGWYRQAPGKERELVAAISRSGDSTYYADSVKGRFTISRDNAKNTVYLQMNSLKPEATAVYYCKARYWHGPTGSDYWGQGTQVTVSS", "polyreactivity (PSR sort gate)": "high polyreactivity"}
